{
  "source": "patent US20020155571A1",
  "about": "“Triazine degrading enzymes” (priority 2000, published 2002)",
  "molecules": {"B1": {"name": "atzA: naturally occurring atrazine chlorohydrolase (atzA), GenBank #U55933 (protein, UniProt P72156 1-474, looked up)", "Atrazine chlorohydrolase": "MQTLSIQHGTLVTMDQYRRVLGDSWVHVQDGRIVALGVHAESVPPPADRVIDARGKVVLPGFINAHTHVNQILLRGGPSHGRQFYDWLFNVVYPGQKAMRPEDVAVAVRLYCAEAVRSGITTINENADSAIYPGNIEAAMAVYGEVGVRVVYARMFFDRMDGRIQGYVDALKARSPQVELCSIMEETAVAKDRITALSDQYHGTAGGRISVWPAPATTTAVTVEGMRWAQAFARDRAVMWTLHMAESDHDERIHGMSPAEYMECYGLLDERLQVAHCVYFDRKDVRLLHRHNVKVASQVVSNAYLGSGVAPVPEMVERGMAVGIGTDNGNSNDSVNMIGDMKFMAHIHRAVHRDADVLTPEKILEMATIDGARSLGMDHEIGSIETGKRADLILLDLRHPQTTPHHHLAATIVFQAYGNEVDTVLIDGNVVMENRRLSFLPPERELAFLEEAQSRATAILQRANMVANPAWRSL"}, "B2": {"name": "113 (protein)", "chain": "MQTLSIQHGTLVTMDQYRRVLGDSWVHVQDGRIVALGVHAESVPPPADRVIDARGKVVLPGFINAHTHVNQILLRGGPSHGRQFYDWLFNVLYPGQKAMRPEVAVAVRLYCAEAVRSGITTINEEADSAIYPGNIEAAMAVYGEVGVRVVYARMFFDRMDGRIQGYVDALKARSPQVELCSIMEETAVAKDRITALSDQYHGTAGGRISVWPAPATTTTVTVEGMRWAQAFARDRAVMWTLHMAESDHDERIIGGSPAEYMECYGLLDERLQVAHCVYFDRKDVRLLHRHNVKVASQVVSNAYLGSGVAPVPEMVERGMAVGIGTDNDNSCDSVNMIGDMKFMAHIHRAVHRDADVLTPEKILEMATIDGARSLGMDHEIGSIETGKRADLILLDLRHPQTTPHHHLAATIVFQAYGNEVDTVLIDGNVVMENRRLSFLPPERELAFLEEAQSRATAILQRANMVANPAWRSL"}, "B3": {"name": "382 (protein)", "chain": "B2 chain with F84L, I253L, G255W, C331S"}, "B4": {"name": "504 (protein)", "chain": "B2 chain with F84L, L92V, G255W, D328N, C331S"}, "B5": {"name": "314 (protein)", "chain": "B2 chain with F84L, E125D, I253L, C331S"}, "B6": {"name": "49 (protein)", "chain": "B2 chain with E125D"}, "B7": {"name": "248 (protein)", "chain": "B2 chain with L92V, G255W, D328N, C331S"}, "B8": {"name": "508 (protein)", "chain": "B2 chain with F84L, L92V, I253L, D328N, C331S"}, "B9": {"name": "244 (protein)", "chain": "B2 chain with L92V, D328N, C331S"}, "B10": {"name": "61 (protein)", "chain": "B2 chain with E125D, I253L, G255W"}, "B11": {"name": "370 (protein)", "chain": "B2 chain with F84L, C331S"}, "B12": {"name": "53 (protein)", "chain": "B2 chain with E125D, G255W"}, "B13": {"name": "498 (protein)", "chain": "B2 chain with F84L, L92V, C331S"}, "B14": {"name": "502 (protein)", "chain": "B2 chain with F84L, L92V, G255W, C331S"}, "B15": {"name": "466 (protein)", "chain": "B2 chain with F84L, L92V, T217I, C331S"}, "B16": {"name": "512 (protein)", "chain": "B2 chain with F84L, L92V, I253L, G255W, D328N, C331S"}, "B17": {"name": "124 (protein)", "chain": "B2 chain with I253L, D328N, C331S"}, "B18": {"name": "117 (protein)", "chain": "B2 chain with G255W"}, "B19": {"name": "318 (protein)", "chain": "B2 chain with F84L, E125D, I253L, G255W, C331S"}, "B20": {"name": "128 (protein)", "chain": "B2 chain with I253L, G255W, D328N, C331S"}, "B21": {"name": "482 (protein)", "chain": "B2 chain with F84L, L92V, T219P, C331S"}, "B22": {"name": "345 (protein)", "chain": "B2 chain with F84L, T217I, I253L"}, "B23": {"name": "383 (protein)", "chain": "B2 chain with F84L, I253L, G255W, D328N"}, "B24": {"name": "349 (protein)", "chain": "B2 chain with F84L, T217I, I253L, G255W"}, "B25": {"name": "57 (protein)", "chain": "B2 chain with E125D, I253L"}},
  "format_in_all_cases": "biochemical",
  "key": {"[1]": {"assay": "Product formation by washed and induced cells expressing triazine hydrolase, substrate N-methylatrazine", "conditions": "250 μM substrate, 20 ul washed and induced cells in 100 μl NH3Acetate pH 6.8, 22° C."}, "[2]": {"assay": "Product formation by washed and induced cells expressing triazine hydrolase, substrate aminoatrazine", "conditions": "250 μM substrate, 20 ul washed and induced cells in 100 μl NH3Acetate pH 6.8, 22° C."}, "[3]": {"assay": "Product formation by washed and induced cells expressing triazine hydrolase, substrate atrazine", "conditions": "250 μM substrate, 20 ul washed and induced cells in 100 μl NH3Acetate pH 6.8, 22° C."}, "[4]": {"assay": "Product formation by washed and induced cells expressing triazine hydrolase, substrate propazine", "conditions": "250 μM substrate, 20 ul washed and induced cells OD600 = 3 in 100 μl 10 mM NH3Acetate pH 6.8, 37° C."}, "[5]": {"assay": "Product formation by washed and induced cells expressing triazine hydrolase, substrate aminopropazine", "conditions": "250 μM substrate, 20 ul washed and induced cells OD600 = 3 in 100 μl 10 mM NH3Acetate pH 6.8, 37° C."}, "[6]": {"assay": "Product formation by washed and induced cells expressing triazine hydrolase, substrate prometryn", "conditions": "250 μM substrate, 20 ul washed and induced cells OD600 = 3 in 100 μl 10 mM NH3Acetate pH 6.8, 37° C."}, "[7]": {"assay": "Product formation by washed and induced cells expressing triazine hydrolase, substrate ametryn", "conditions": "250 μM substrate, 20 ul washed and induced cells in 100 μl NH3Acetate pH 6.8, 22° C."}, "[8]": {"assay": "Product formation by washed and induced cells expressing triazine hydrolase, substrate prometon", "conditions": "250 μM substrate, 20 ul washed and induced cells OD600 = 3 in 100 μl 10 mM NH3Acetate pH 6.8, 37° C."}, "[9]": {"assay": "Product formation by washed and induced cells expressing triazine hydrolase, substrate N-methylpropazine", "conditions": "250 μM substrate, 20 ul washed and induced cells OD600 = 3 in 100 μl 10 mM NH3Acetate pH 6.8, 37° C."}, "[10]": {"assay": "Product formation by washed and induced cells expressing triazine hydrolase, substrate atratone", "conditions": "250 μM substrate, 20 ul washed and induced cells in 100 μl NH3Acetate pH 6.8, 22° C."}, "[11]": {"assay": "High throughput mass spectrometry screen of triazine hydrolase library against about 15 triazine derivatives", "conditions": "for Substrate Activity: ametryn: preferred substrates; for Substrate Activity: nme-atrazine: column lists substrates on which the library member shows preferred triazine hydrolase activity"}, "[12]": {"conditions": "Table 5, the value is the triazine substrate the library member (atzA-based variant) is active on, preferred members, not exclusive"}, "[13]": {"conditions": "substrate(s) on which the triazine hydrolase library member shows activity, column indicates preferred embodiments and is not exclusive"}, "[14]": {"conditions": "substrate propazine, column indicates preferred embodiments, not exclusive"}},
  "note": "Numbering of substitutions follows the chain as printed.",
  "data": [
    {"molecule": "B1", "values": [
      {"measurement": "Product formation, substrate NMeAtrazine", "setting": "[1]", "value": 0, "unit": "nM/h"},
      {"measurement": "Product formation, substrate Aminoatrazine", "setting": "[2]", "value": 0, "unit": "nM/h"},
      {"measurement": "Product formation, substrate Atrazine", "setting": "[3]", "value": 58899, "unit": "nM/h"},
      {"measurement": "Product formation, substrate Propazine", "setting": "[4]", "value": 26, "unit": "nM/h"},
      {"measurement": "Product formation, substrate Aminopropazine", "setting": "[5]", "value": 0, "unit": "nM/h"},
      {"measurement": "Product formation, substrate Prometryn", "setting": "[6]", "value": 0, "unit": "nM/h"},
      {"measurement": "Product formation, substrate Ametryn", "setting": "[7]", "value": 0, "unit": "nM/h"},
      {"measurement": "Product formation, substrate Prometon", "setting": "[8]", "value": 0, "unit": "nM/h"},
      {"measurement": "Product formation, substrate NMePropazine", "setting": "[9]", "value": 0, "unit": "nM/h"},
      {"measurement": "Product formation, substrate Atratone", "setting": "[10]", "value": 0, "unit": "nM/h"}
    ]},
    {"molecule": "B2", "values": [
      {"measurement": "Substrate Activity", "setting": "[11]; [12]", "value": "atratone"}
    ]},
    {"molecule": "B3", "values": [
      {"measurement": "Substrate Activity: ametryn", "setting": "[11]; not exclusive", "value": "ametryn"}
    ]},
    {"molecule": "B4", "values": [
      {"measurement": "Substrate Activity", "setting": "[11]; [13]", "value": "propazine"}
    ]},
    {"molecule": "B5", "values": [
      {"measurement": "Substrate Activity: ametryn", "setting": "[11]; not exclusive", "value": "ametryn"}
    ]},
    {"molecule": "B6", "values": [
      {"measurement": "Substrate Activity", "setting": "[11]; [12]", "value": "atratone"}
    ]},
    {"molecule": "B7", "values": [
      {"measurement": "Substrate Activity", "setting": "[11]; [14]", "value": "propazine"}
    ]},
    {"molecule": "B8", "values": [
      {"measurement": "Substrate Activity", "setting": "[11]; [13]", "value": "propazine"}
    ]},
    {"molecule": "B9", "values": [
      {"measurement": "Substrate Activity", "setting": "[11]; [14]", "value": "propazine"}
    ]},
    {"molecule": "B10", "values": [
      {"measurement": "Substrate Activity", "setting": "[11]; [12]", "value": "atratone"}
    ]},
    {"molecule": "B11", "values": [
      {"measurement": "Substrate Activity: ametryn", "setting": "[11]; not exclusive", "value": "ametryn"}
    ]},
    {"molecule": "B12", "values": [
      {"measurement": "Substrate Activity", "setting": "[11]; [12]", "value": "atratone"}
    ]},
    {"molecule": "B13", "values": [
      {"measurement": "Substrate Activity", "setting": "[11]; [13]", "value": "prometryn"}
    ]},
    {"molecule": "B14", "values": [
      {"measurement": "Substrate Activity", "setting": "[11]; [13]", "value": "prometryn"}
    ]},
    {"molecule": "B15", "values": [
      {"measurement": "Substrate Activity", "setting": "[11]; [13]", "value": "prometryn"}
    ]},
    {"molecule": "B16", "values": [
      {"measurement": "Substrate Activity", "setting": "[11]; [13]", "value": "propazine"}
    ]},
    {"molecule": "B17", "values": [
      {"measurement": "Substrate Activity", "setting": "[11]; [12]", "value": "atrazine"}
    ]},
    {"molecule": "B18", "values": [
      {"measurement": "Substrate Activity", "setting": "[11]; [12]", "value": "atratone"}
    ]},
    {"molecule": "B19", "values": [
      {"measurement": "Substrate Activity: ametryn", "setting": "[11]; not exclusive", "value": "ametryn"}
    ]},
    {"molecule": "B20", "values": [
      {"measurement": "Substrate Activity", "setting": "[11]; [12]", "value": "atrazine"}
    ]},
    {"molecule": "B21", "values": [
      {"measurement": "Substrate Activity", "setting": "[11]; [13]", "value": "prometryn"}
    ]},
    {"molecule": "B22", "values": [
      {"measurement": "Substrate Activity: nme-atrazine", "setting": "[11]; not exclusive", "value": "nme-atrazine"}
    ]},
    {"molecule": "B23", "values": [
      {"measurement": "Substrate Activity: ametryn", "setting": "[11]; not exclusive", "value": "ametryn"}
    ]},
    {"molecule": "B24", "values": [
      {"measurement": "Substrate Activity: nme-atrazine", "setting": "[11]; not exclusive", "value": "nme-atrazine"}
    ]},
    {"molecule": "B25", "values": [
      {"measurement": "Substrate Activity", "setting": "[11]; [12]", "value": "atratone"}
    ]}
  ]
}
